Laboratory results taken from paper PMC3829045.

Tests used:
mouse sFlt-1-Fc (mouse) = mouse sFlt-1-Fc (mouse) (UniProt P35969); assay: ELISA
VEGFR-2 (Homo sapiens) = VEGFR-2 (Homo sapiens) (UniProt P35968); conditions: cited from earlier work
Chain of UniProt P35968 (P35968 20-1356): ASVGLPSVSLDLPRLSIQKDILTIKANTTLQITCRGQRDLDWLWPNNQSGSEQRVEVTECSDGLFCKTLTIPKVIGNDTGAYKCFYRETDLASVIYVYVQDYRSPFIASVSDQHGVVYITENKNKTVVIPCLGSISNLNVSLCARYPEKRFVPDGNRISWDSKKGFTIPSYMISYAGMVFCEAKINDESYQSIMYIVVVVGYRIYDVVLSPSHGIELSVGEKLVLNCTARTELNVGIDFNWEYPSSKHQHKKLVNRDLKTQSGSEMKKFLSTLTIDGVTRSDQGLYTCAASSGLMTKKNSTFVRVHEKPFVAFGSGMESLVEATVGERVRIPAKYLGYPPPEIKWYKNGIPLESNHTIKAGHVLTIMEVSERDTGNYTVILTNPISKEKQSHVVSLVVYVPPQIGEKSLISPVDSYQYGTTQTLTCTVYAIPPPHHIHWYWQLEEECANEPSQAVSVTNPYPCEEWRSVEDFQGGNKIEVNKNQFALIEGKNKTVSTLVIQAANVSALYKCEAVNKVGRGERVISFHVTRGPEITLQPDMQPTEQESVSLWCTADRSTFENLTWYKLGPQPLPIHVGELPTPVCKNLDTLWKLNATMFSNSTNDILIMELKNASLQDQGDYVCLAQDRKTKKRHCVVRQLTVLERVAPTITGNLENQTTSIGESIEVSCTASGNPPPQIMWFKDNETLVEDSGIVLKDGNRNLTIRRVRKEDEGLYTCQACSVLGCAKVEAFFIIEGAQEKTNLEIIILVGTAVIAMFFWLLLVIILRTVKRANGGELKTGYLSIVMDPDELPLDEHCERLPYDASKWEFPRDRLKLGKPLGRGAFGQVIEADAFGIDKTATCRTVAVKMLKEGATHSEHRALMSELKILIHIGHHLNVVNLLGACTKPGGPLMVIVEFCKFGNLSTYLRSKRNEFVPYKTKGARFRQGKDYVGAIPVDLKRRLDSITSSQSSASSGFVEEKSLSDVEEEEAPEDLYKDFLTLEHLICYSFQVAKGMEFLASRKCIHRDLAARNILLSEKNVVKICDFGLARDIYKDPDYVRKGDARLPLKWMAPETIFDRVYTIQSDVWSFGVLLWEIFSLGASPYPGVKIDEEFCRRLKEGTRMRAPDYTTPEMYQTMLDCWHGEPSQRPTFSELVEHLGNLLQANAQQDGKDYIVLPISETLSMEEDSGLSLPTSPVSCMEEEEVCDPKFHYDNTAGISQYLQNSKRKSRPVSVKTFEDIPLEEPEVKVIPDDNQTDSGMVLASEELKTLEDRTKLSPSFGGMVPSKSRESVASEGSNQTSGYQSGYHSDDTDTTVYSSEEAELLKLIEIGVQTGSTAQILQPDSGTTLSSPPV

Chain of UniProt P35969 (P35969 23-758): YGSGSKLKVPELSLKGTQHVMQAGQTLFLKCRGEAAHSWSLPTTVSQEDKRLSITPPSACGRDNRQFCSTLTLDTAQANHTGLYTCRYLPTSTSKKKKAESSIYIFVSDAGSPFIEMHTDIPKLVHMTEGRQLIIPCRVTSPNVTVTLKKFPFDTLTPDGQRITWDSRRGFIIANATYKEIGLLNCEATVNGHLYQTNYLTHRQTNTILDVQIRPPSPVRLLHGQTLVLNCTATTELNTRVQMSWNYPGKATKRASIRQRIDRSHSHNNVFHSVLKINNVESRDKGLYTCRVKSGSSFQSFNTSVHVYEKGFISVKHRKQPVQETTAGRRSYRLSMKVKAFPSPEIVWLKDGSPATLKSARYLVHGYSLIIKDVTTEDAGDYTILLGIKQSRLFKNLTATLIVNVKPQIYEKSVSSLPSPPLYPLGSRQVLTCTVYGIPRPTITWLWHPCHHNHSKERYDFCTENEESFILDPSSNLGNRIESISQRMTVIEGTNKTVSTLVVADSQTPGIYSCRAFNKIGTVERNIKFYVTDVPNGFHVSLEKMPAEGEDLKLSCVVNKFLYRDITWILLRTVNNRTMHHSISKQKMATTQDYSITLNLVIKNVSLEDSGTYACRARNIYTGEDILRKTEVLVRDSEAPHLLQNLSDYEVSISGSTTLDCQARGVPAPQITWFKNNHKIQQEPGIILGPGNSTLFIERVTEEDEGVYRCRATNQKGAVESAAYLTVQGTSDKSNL

Row | Substance | percent decrease of ELISA-detectable sFlt-1 when VEGF was co-expressed (mouse sFlt-1-Fc (mouse)) | percent decrease of free sFlt-1 in plasma of co-treated mice (mouse sFlt-1-Fc (mouse)) | Kd (VEGFR-2 (Homo sapiens))
1 | VEGF165 (ligand) | 70 to 80% | > 70% | 
2 | VEGF (from UniProt P15692) |  |  | 0.76 nM
